Measurements as given in article PMC8202330, “Phosphorylation of the LIR Domain of SCOC Modulates ATG8 Binding Affinity and Specificity” (Journal of Molecular Biology, 2021).
Blank lines part the entries; values can stand above or below the substance they belong to.

What was measured:
GABARAP = GABARAP (UniProt O95166); assay: bio-layer interferometry, immobilised biotin peptide; conditions: reference: unphosphorylated WT peptide
GABARAPL2 = GABARAPL2 (UniProt P60520); assay: as above; conditions: reference: unphosphorylated WT peptide
LC3A = LC3A (UniProt Q9H492); assay: as above; conditions: reference: unphosphorylated WT peptide
LC3C = LC3C (UniProt Q9BXW4); assay: as above; conditions: reference: unphosphorylated WT peptide
GABARAPL1 = GABARAPL1 (UniProt Q9H0R8); assay: as above; conditions: reference: unphosphorylated WT peptide
LC3B = LC3B (UniProt Q9GZQ8); assay: as above; conditions: reference: unphosphorylated WT peptide
[1] = biological target: SCOC aa 11–25 LIR peptide (human); assay: BLI; biotinylated LIR peptide immobilized on streptavidin biosensor, ATG8 in solution; 25 mM Tris pH 7.5, 150 mM NaCl, 0.5 mM TCEP, 0.1% Tween20, 1 mg/ml BSA; 25 °C; Kd from response against concentration
[2] = biological target: SCOC pS12 LIR peptide (human); assay: as above
[3] = biological target: SCOC aa 6–18 LIR peptide (human); assay: as above
[4] = biological target: SCOC LIR peptide phosphorylated at S12 and S18 (BLI) (human); assay: as above

Sequence of GABARAPL1 (Q9H0R8 whole entry, looked up): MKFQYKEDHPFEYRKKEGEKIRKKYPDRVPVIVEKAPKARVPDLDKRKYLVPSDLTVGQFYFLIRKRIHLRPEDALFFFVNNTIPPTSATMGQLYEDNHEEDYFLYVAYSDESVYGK
Sequence of GABARAPL1 (for BLI) (Q9H0R8 whole entry): as the sequence (Q9H0R8 whole entry, looked up) above
Sequence of LC3C (Q9BXW4 whole entry, looked up): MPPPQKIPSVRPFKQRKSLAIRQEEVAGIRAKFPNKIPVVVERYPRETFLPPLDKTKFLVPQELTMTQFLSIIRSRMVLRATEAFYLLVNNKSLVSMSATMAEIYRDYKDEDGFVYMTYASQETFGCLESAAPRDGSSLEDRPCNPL
Sequence of GABARAP (O95166 whole entry, looked up): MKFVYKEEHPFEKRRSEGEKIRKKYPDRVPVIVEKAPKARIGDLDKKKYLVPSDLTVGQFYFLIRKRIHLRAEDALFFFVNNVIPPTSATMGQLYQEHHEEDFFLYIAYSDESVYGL
Sequence of GABARAPL2 (P60520 whole entry, looked up): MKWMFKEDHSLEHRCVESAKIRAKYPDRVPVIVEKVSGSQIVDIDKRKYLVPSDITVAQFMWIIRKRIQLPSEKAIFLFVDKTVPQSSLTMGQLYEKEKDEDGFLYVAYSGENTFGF
Sequence of LC3C (for BLI) (Q9BXW4 1-126): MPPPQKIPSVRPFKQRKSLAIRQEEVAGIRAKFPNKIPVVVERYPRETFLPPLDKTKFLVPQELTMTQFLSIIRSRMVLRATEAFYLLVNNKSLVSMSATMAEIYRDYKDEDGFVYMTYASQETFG
Sequence of SCOC pS12 LIR peptide (human) (peptide, as listed by the source): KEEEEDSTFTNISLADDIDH

fold change (GABARAP; sites S12,S18): stronger | fold change (GABARAPL2; sites S12,S18): stronger | fold change (LC3A; sites S12,S18): stronger | fold change (LC3C; sites S12,S18): stronger | fold change (GABARAPL1; sites S12,S18): stronger | fold change (LC3B; sites S12,S18): stronger
Substance: SCOC (isoform 3) LIR domain, 6-25 (from UniProt Q9UIL1-2) pS12/pS18 peptide

fold change (GABARAP; sites S12): stronger | fold change (GABARAPL2; sites S12): stronger | fold change (LC3A; sites S12): stronger | fold change (LC3C; sites S12): stronger | fold change (GABARAPL1; sites S12): stronger | fold change (LC3B; sites S12): stronger
Substance: SCOC (isoform 3) LIR domain, 6-25 (from UniProt Q9UIL1-2) pS12 peptide

fold increase in affinity over SCOC WT LIR peptide [4]: 17 fold
Substance: LC3A (for BLI) (from UniProt Q9H492 1-121) (natural protein)

Continued, substance first:

Substance: GABARAPL1 (for BLI) (from UniProt Q9H0R8 1-117) (natural protein)
fold decrease in affinity against SCOC WT LIR peptide [1]: 104 fold | fold increase in affinity over SCOC WT LIR peptide [2]: 2 fold | fold decrease in affinity against SCOC WT LIR peptide [3]: 4 fold

Substance: SCOC (isoform 3) LIR domain, 6-25 (from UniProt Q9UIL1-2) pS12/pT15 peptide
fold change (GABARAP; sites S12,T15): stronger | fold change (GABARAPL2; sites S12,T15): stronger | fold change (LC3A; sites S12,T15): stronger | fold change (LC3C; sites S12,T15): stronger | fold change (GABARAPL1; sites S12,T15): stronger | fold change (LC3B; sites S12,T15): stronger

Substance: SCOC (isoform 3) LIR domain, 6-25 (from UniProt Q9UIL1-2) pT15 peptide
fold change (GABARAP; sites T15): same | fold change (GABARAPL2; sites T15): same | fold change (LC3A; sites T15): stronger | fold change (LC3C; sites T15): stronger | fold change (GABARAPL1; sites T15): same | fold change (LC3B; sites T15): stronger

Substance: SCOC (isoform 3) LIR domain, 6-25 (from UniProt Q9UIL1-2) pT13 peptide
binding against the reference (GABARAP; sites T13): same | binding against the reference (GABARAPL2; sites T13): same | binding against the reference (LC3C; sites T13): same | binding against the reference (GABARAPL1; sites T13): same | binding against the reference (LC3B; sites T13): same

Substance: LC3C (for BLI) (from UniProt Q9BXW4 1-126) (natural protein)
fold increase in affinity over SCOC WT LIR peptide [4]: 21 fold

Substance: SCOC (isoform 3) LIR domain, 6-25 (from UniProt Q9UIL1-2) pS18 peptide
fold change (GABARAP; sites S18): same | fold change (GABARAPL2; sites S18): same | fold change (LC3A; sites S18): stronger | fold change (LC3C; sites S18): stronger | fold change (GABARAPL1; sites S18): same | fold change (LC3B; sites S18): stronger
